Assay results published in the Immune Epitope Database (IEDB).

Key:
[1] = target: HLA-A*03:01; experiment: IEDB peptide-MHC binding, purified MHC/direct/fluorescence; filed as Kd, often an IC50 or EC50 that approximates it; ≥ and ≤ were set here for values at or beyond the usual limits of such assays
[2] = target: HLA-A*02:19; experiment: as above
[3] = target: HLA-A*02:16; experiment: as above; details: source organism: Zaire ebolavirus
[4] = target: HLA-A*02:11; experiment: as above; details: source organism: Zaire ebolavirus
[5] = target: HLA-A*24:03; experiment: as above
[6] = target: HLA-A*68:02; experiment: as above
[7] = target: HLA-A*02:12; experiment: as above
[8] = target: HLA-A*23:01; experiment: as above
[9] = target: HLA-A*29:02; experiment: as above
[10] = target: HLA-A*02:03; experiment: as above
[11] = target: HLA-B*39:01; experiment: IEDB peptide-MHC binding, purified MHC/competitive/fluorescence; filed as Kd, often an IC50 or EC50 that approximates it; ≥ and ≤ were set here for values at or beyond the usual limits of such assays
[12] = target: HLA-B*15:01; experiment: as above; details: source organism: Zaire ebolavirus
[13] = target: HLA-A*26:01; experiment: as above
[14] = target: HLA-B*15:17; experiment: as above
[15] = target: HLA-B*51:01; experiment: as above
[16] = target: HLA-A*69:01; experiment: as above
[17] = target: HLA-B*46:01; experiment: as above
[18] = target: HLA-B*57:01; experiment: as above
[19] = target: HLA-A*02:01; experiment: as above
[20] = target: HLA-B*18:01; experiment: as above
[21] = target: HLA-B*27:03; experiment: as above
[22] = target: HLA-A*11:01; experiment: IEDB peptide-MHC binding, purified MHC/direct/fluorescence; filed as Kd, often an IC50 or EC50 that approximates it; ≥ and ≤ were set here for values at or beyond the usual limits of such assays
[23] = target: HLA-A*23:01; experiment: IEDB peptide-MHC binding, purified MHC/competitive/fluorescence; filed as Kd, often an IC50 or EC50 that approximates it; ≥ and ≤ were set here for values at or beyond the usual limits of such assays; details: source organism: Yersinia enterocolitica (type O:8)
[24] = target: HLA-B*40:01; experiment: IEDB peptide-MHC binding, purified MHC/direct/fluorescence; filed as Kd, often an IC50 or EC50 that approximates it; ≥ and ≤ were set here for values at or beyond the usual limits of such assays; details: source organism: Vibrio parahaemolyticus
[25] = target: HLA-B*08:03; experiment: as above
[26] = target: HLA-B*58:01; experiment: as above
[27] = target: HLA-B*15:01; experiment: as above
[28] = target: HLA-B*08:02; experiment: as above
[29] = target: HLA-B*27:05; experiment: as above
[30] = target: HLA-B*15:17; experiment: as above
[31] = target: HLA-A*26:02; experiment: as above
[32] = target: HLA-B*46:01; experiment: as above
[33] = target: HLA-B*57:01; experiment: as above
[34] = target: HLA-A*31:01; experiment: as above
[35] = target: HLA-A*02:01; experiment: as above
[36] = target: HLA-A*01:01; experiment: as above
[37] = target: HLA-B*08:01; experiment: as above
[38] = target: HLA-B*18:01; experiment: as above; details: source organism: Vibrio parahaemolyticus
[39] = target: HLA-B*07:02; experiment: as above
[40] = target: HLA-B*48:01; experiment: as above
[41] = target: HLA-A*02:06; experiment: IEDB peptide-MHC binding, purified MHC/competitive/fluorescence; filed as Kd, often an IC50 or EC50 that approximates it; ≥ and ≤ were set here for values at or beyond the usual limits of such assays
[42] = target: HLA-A*26:01; experiment: IEDB peptide-MHC binding, purified MHC/direct/fluorescence; filed as Kd, often an IC50 or EC50 that approximates it; ≥ and ≤ were set here for values at or beyond the usual limits of such assays; details: source organism: Campylobacter jejuni
[43] = target: HLA-B*40:01; experiment: IEDB peptide-MHC binding, purified MHC/competitive/fluorescence; filed as Kd, often an IC50 or EC50 that approximates it; ≥ and ≤ were set here for values at or beyond the usual limits of such assays; details: source organism: Campylobacter jejuni subsp. jejuni BH-01-0142
[44] = target: HLA-A*02:03; experiment: as above; details: source organism: Campylobacter jejuni subsp. jejuni BH-01-0142
[45] = source organism: Zaire ebolavirus
[46] = source organism: Giardia lamblia ATCC 50803
[47] = source organism: Vibrio parahaemolyticus
[48] = source organism: Vibrio parahaemolyticus RIMD 2210633
[49] = source organism: Campylobacter jejuni

## HLSGWELAK
[1]; source organism: Sudan ebolavirus - Maleo (1979)
  Kd: 148 nM
[2]; [45]
  Kd: ≥ 20 µM
[3]
  Kd: ≥ 20 µM
[4]
  Kd: ≥ 20 µM
[5]; [45]
  Kd: ≥ 20 µM
[6]; [45]
  Kd: ≥ 20 µM
[7]; [45]
  Kd: ≥ 20 µM
[8]; [45]
  Kd: ≥ 20 µM
[9]; [45]
  Kd: ≥ 20 µM
[10]; [45]
  Kd: ≥ 20 µM
[11]; [45]
  Kd: ≥ 20 µM
[12]
  Kd: ≥ 20 µM
[13]; [45]
  Kd: ≥ 20 µM
[14]; [45]
  Kd: ≥ 20 µM
[15]; [45]
  Kd: ≥ 20 µM
[16]; [45]
  Kd: ≥ 20 µM
[17]; [45]
  Kd: ≥ 20 µM
[18]; [45]
  Kd: ≥ 20 µM
[19]; [45]
  Kd: ≥ 20 µM
[20]; [45]
  Kd: ≥ 20 µM
[21]; [45]
  Kd: ≥ 20 µM

## RIYDPLWFQ
[1]; [46]
  Kd: ≥ 20000 nM
[2]; [46]
  Kd: ≥ 20 µM
[5]; [46]
  Kd: ≥ 20 µM
[22]; [46]
  Kd: 2930 nM
[6]; [46]
  Kd: ≥ 20 µM
[7]; [46]
  Kd: ≥ 20 µM
[8]; [46]
  Kd: ≥ 20 µM
[9]; [46]
  Kd: ≥ 20 µM
[10]; [46]
  Kd: ≥ 20 µM
[11]; [46]
  Kd: ≥ 20 µM
[13]; [46]
  Kd: ≥ 20 µM
[14]; [46]
  Kd: ≥ 20 µM
[15]; [46]
  Kd: ≥ 20 µM
[16]; [46]
  Kd: ≥ 20 µM
[17]; [46]
  Kd: ≥ 20 µM
[18]; [46]
  Kd: ≥ 20 µM
[19]; [46]
  Kd: ≥ 20 µM
[20]; [46]
  Kd: ≥ 20 µM
[21]; [46]
  Kd: ≥ 20 µM

## TYQVYRYII
[23]
  Kd: ≤ 0.1 nM

## VFMDNAFKK
[1]; [47]
  Kd: 1380 nM
[24]
  Kd: ≥ 20 µM
[25]; [48]
  Kd: ≥ 20 µM
[26]; [47]
  Kd: ≥ 20 µM
[27]; [47]
  Kd: ≥ 20 µM
[28]; [48]
  Kd: ≥ 20 µM
[29]; [47]
  Kd: ≥ 20 µM
[30]; [47]
  Kd: ≥ 20 µM
[31]; [48]
  Kd: ≥ 20 µM
[32]; [47]
  Kd: ≥ 20 µM
[33]; [47]
  Kd: ≥ 20 µM
[22]; [47]
  Kd: 131 nM
[6]; [47]
  Kd: ≥ 20 µM
[34]; [47]
  Kd: 2.21 µM
[35]; [47]
  Kd: ≥ 20 µM
[36]; [47]
  Kd: ≥ 20 µM
[37]; [48]
  Kd: ≥ 20 µM
[38]
  Kd: ≥ 20 µM
[39]; [47]
  Kd: ≥ 20 µM
[40]; [47]
  Kd: ≥ 20 µM
[41]; [48]
  Kd: 291 nM

## VSIRGSHHK
[1]; [49]
  Kd: 145 nM
[25]; [49]
  Kd: ≥ 20 µM
[26]; [49]
  Kd: ≥ 20 µM
[27]; [49]
  Kd: ≥ 5 µM
[28]; [49]
  Kd: ≥ 20 µM
[29]; [49]
  Kd: ≥ 20 µM
[42]
  Kd: ≥ 20 µM
[30]; [49]
  Kd: ≥ 20 µM
[31]; [49]
  Kd: ≥ 20 µM
[32]; [49]
  Kd: ≥ 20 µM
[33]; [49]
  Kd: ≥ 20 µM
[22]; [49]
  Kd: 91 nM
[6]; [49]
  Kd: ≥ 20 µM
[34]; [49]
  Kd: 4.88 µM
[35]; [49]
  Kd: ≥ 20 µM
[36]; [49]
  Kd: ≥ 20 µM
[37]; [49]
  Kd: ≥ 20 µM
[39]; [49]
  Kd: ≥ 20 µM
[40]; [49]
  Kd: ≥ 20 µM
[43]
  Kd: 3.19 µM
[41]; source organism: Campylobacter jejuni subsp. jejuni BH-01-0142
  Kd: 5130 nM
[44]
  Kd: 3.41 µM
